From patent publication US20250101122A1 (KELONIA THERAPEUTICS, published 2025)

T1: recombinant, phycoerythrin (PE) labeled, BCMA extracellular domain-FC fusion protein (BCMA-PE) (Homo sapiens (Human), UniProt Q02223 1-54, phycoerythrin (PE) label, site not stated)
T1 construct: Staining reagent; not shown: Fc part
T1 sequence: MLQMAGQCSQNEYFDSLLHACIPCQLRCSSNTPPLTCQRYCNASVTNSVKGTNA


Molecular target: T1, recombinant, phycoerythrin (PE) …
Test: flow cytometry; transduced PBMCs stained with PE-labelled BCMA extracellular domain-Fc (BCMA-PE)
Description: 5×10⁵ human PBMCs were plated in each well of a 24-well plate. Cells were transduced with recombinant lentiviruses LV 1 to LV 19 at a MOI 2 based on the Jurkat functional titer, or a 0.5 mL volumetric transduction if MOI 2 was not achievable. Seven days post-transduction, PBMCs were harvested and stained with BCMA-PE and analyzed by flow cytometry to assess the percentage of anti-BCMA CAR expressing cells. FIG. 2B.

Binder	binding result
anti-BCMA CAR of recombinant lentivirus LV 9 (SEQ ID NO: 597) (other, Chimeric antigen receptor on the surface of transduced cells; CD8α hinge and TM, CD137, CD3ζ) EVQLLESGGGLVQPGGSLRLSCAASGFTFGSEAMSWVRQAPGKERELVSAISGSGEVTYYADSVKGRFTISRDNSKNTLYLQMNSLRAEDTAVYYCQRLVEAKRHWGQGTQVTVSSTTTPAPRPPTPAPTIASQPLSLRPEACRPAAGGAVHTRGLDFACDIYIWAPLAGTCGVLLLSLVITLYCKRGRKKLLYIFKQPFMRPVQTTQEEDGCSCRFPEEEEGGCELRVKFSRSADAPAYQQGQNQLYNELNLGRREEYDVLDKRRGRDPEMGGKPRRKNPQEGLYNELQKDKMAEAYSEIGMKGERRRGKGHDGLYQGLSTATKDTYDALHMQALPPR	binds
anti-BCMA CAR of recombinant lentivirus LV 12 (SEQ ID NO: 669) (other, Chimeric antigen receptor on the surface of transduced cells; CD8α hinge and TM, CD137, CD3ζ) EVQLLESGGGLVQPGGSLRLSCAASGFTFEDYAMSWFRQAPGKEREGVSAISGKGGSTYYADSVKGRFTISRDNSKNTLYLQMNSLRAEDTAVYYCAVLDEEAGAEGGYWGQGTQVTVSSTTTPAPRPPTPAPTIASQPLSLRPEACRPAAGGAVHTRGLDFACDIYIWAPLAGTCGVLLLSLVITLYCKRGRKKLLYIFKQPFMRPVQTTQEEDGCSCRFPEEEEGGCELRVKFSRSADAPAYQQGQNQLYNELNLGRREEYDVLDKRRGRDPEMGGKPRRKNPQEGLYNELQKDKMAEAYSEIGMKGERRRGKGHDGLYQGLSTATKDTYDALHMQALPPR	binds
anti-BCMA CAR of recombinant lentivirus LV 13 (SEQ ID NO: 693) (other, Chimeric antigen receptor on the surface of transduced cells; CD8α hinge and TM, CD137, CD3ζ) EVQLLESGGGLVQPGGSLRLSCAASGFTFDRYAMSWFRQAPGKEREGVSAISTSGDSTYYADSVKGRFTISRDNSKNTLYLQMNSLRAEDTAVYYCAVLDEEAGAEGGYWGQGTQVTVSSTTTPAPRPPTPAPTIASQPLSLRPEACRPAAGGAVHTRGLDFACDIYIWAPLAGTCGVLLLSLVITLYCKRGRKKLLYIFKQPFMRPVQTTQEEDGCSCRFPEEEEGGCELRVKFSRSADAPAYQQGQNQLYNELNLGRREEYDVLDKRRGRDPEMGGKPRRKNPQEGLYNELQKDKMAEAYSEIGMKGERRRGKGHDGLYQGLSTATKDTYDALHMQALPPR	binds
anti-BCMA CAR of recombinant lentivirus LV 7 (SEQ ID NO: 477) (other, Chimeric antigen receptor on the surface of transduced cells; CD8α hinge and TM, CD137, CD3ζ) DIQMTQSPSSLSASVGDRVTITCRASQSISSYLNWYQQKPGKAPKLLIYAASSLQSGVPSRFSGSGSGTDFTLTISSLQPEDFATYYCQQAHSSPITFGGGTKVEIKGGGGSGGGGSGGGGSGGGGSEVQLLESGGGLVQPGGSLRLSCAASGFTFSNYAMSWVRQAPGKGLEWVSAISGSGGSTYYADSVKGRFTISRDNSKNTLYLQMNSLRAEDTAVYYCARPGDGYYEGVYFDYWGQGTLVTVSSTTTPAPRPPTPAPTIASQPLSLRPEACRPAAGGAVHTRGLDFACDIYIWAPLAGTCGVLLLSLVITLYCKRGRKKLLYIFKQPFMRPVQTTQEEDGCSCRFPEEEEGGCELRVKFSRSADAPAYQQGQNQLYNELNLGRREEYDVLDKRRGRDPEMGGKPRRKNPQEGLYNELQKDKMAEAYSEIGMKGERRRGKGHDGLYQGLSTATKDTYDALHMQALPPR	binds
anti-BCMA CAR of recombinant lentivirus LV 3 (SEQ ID NO: 261) (other, Chimeric antigen receptor on the surface of transduced cells; CD8α hinge and TM, CD137, CD3ζ) QVQLVESGGGVVQPGRSLRLSCAASGFTFSSYGMHWVRQAPGKGLEWVAVISYEGSNKYYADSVKGRFTISRDNSKNTLYLQMNSLRAEDTAVYYCARELGDGMDVWGQGTTVTVSSGGGGSGGGGSGGGGSGGGGSEIVLTQSPATLSLSPGERATLSCRASQSVSSYLAWFQQKPGQAPRLLIYDASNRATGIPARFSGSGSGTDFTLTISSLEPEDFAVYYCQQRVDLWTFGGGTKVEIKTTTPAPRPPTPAPTIASQPLSLRPEACRPAAGGAVHTRGLDFACDIYIWAPLAGTCGVLLLSLVITLYCKRGRKKLLYIFKQPFMRPVQTTQEEDGCSCRFPEEEEGGCELRVKFSRSADAPAYQQGQNQLYNELNLGRREEYDVLDKRRGRDPEMGGKPRRKNPQEGLYNELQKDKMAEAYSEIGMKGERRRGKGHDGLYQGLSTATKDTYDALHMQALPPR	binds
anti-BCMA CAR of recombinant lentivirus LV 18 (SEQ ID NO: 837) (other, Chimeric antigen receptor on the surface of transduced cells; CD8α hinge and TM, CD137, CD3ζ) EVQLLESGGGLVQPGGSLRLSCAASGFTFSSEGMSWVRQAPGKERELVSAISGSGDHTYYADSVRGRFTISRDNSKNTLYLQMNSLRAEDTAVYYCNALEGGPTTAIQPGGPDYWGQGTQVTVSSTTTPAPRPPTPAPTIASQPLSLRPEACRPAAGGAVHTRGLDFACDIYIWAPLAGTCGVLLLSLVITLYCKRGRKKLLYIFKQPFMRPVQTTQEEDGCSCRFPEEEEGGCELRVKFSRSADAPAYQQGQNQLYNELNLGRREEYDVLDKRRGRDPEMGGKPRRKNPQEGLYNELQKDKMAEAYSEIGMKGERRRGKGHDGLYQGLSTATKDTYDALHMQALPPR	binds
anti-BCMA CAR of recombinant lentivirus LV 11 (SEQ ID NO: 645) (other, Chimeric antigen receptor on the surface of transduced cells; CD8α hinge and TM, CD137, CD3ζ) EVQLLESGGGLVQPGGSLRLSCAASGFTFDEYTMHWFRQAPGKEREFVSAISGGGSETYYADSVKGRFTISRDNSKNTLYLQMNSLRAEDTAVYYCAAGGEEAGVGYWGQGTQVTVSSTTTPAPRPPTPAPTIASQPLSLRPEACRPAAGGAVHTRGLDFACDIYIWAPLAGTCGVLLLSLVITLYCKRGRKKLLYIFKQPFMRPVQTTQEEDGCSCRFPEEEEGGCELRVKFSRSADAPAYQQGQNQLYNELNLGRREEYDVLDKRRGRDPEMGGKPRRKNPQEGLYNELQKDKMAEAYSEIGMKGERRRGKGHDGLYQGLSTATKDTYDALHMQALPPR	binds
anti-BCMA CAR of recombinant lentivirus LV 1 (SEQ ID NO: 189) (other, Chimeric antigen receptor on the surface of transduced cells; CD8α hinge and TM, CD137 costimulatory domain, CD3ζ) EIVLTQSPATLSLSPGERATLSCRASQSVSSYLAWYQQKPGQAPRLLIYDASNRATGIPARFSGSGSGTDFTLTISSLEPEDFAVYYCQQRVVYPITFGGGTKVEIKGGGGSGGGGSGGGGSGGGGSQITLKESGPTLVKPTQTLTLTCTFSGFSLSTSGVGVGWIRQPPGKALEWLALIYWNDEKRYSPSLKSRLTITKDTSKNQVVLTMTNMDPVDTAVYYCARDEYGGFDIWGQGTMVTVSSTTTPAPRPPTPAPTIASQPLSLRPEACRPAAGGAVHTRGLDFACDIYIWAPLAGTCGVLLLSLVITLYCKRGRKKLLYIFKQPFMRPVQTTQEEDGCSCRFPEEEEGGCELRVKFSRSADAPAYQQGQNQLYNELNLGRREEYDVLDKRRGRDPEMGGKPRRKNPQEGLYNELQKDKMAEAYSEIGMKGERRRGKGHDGLYQGLSTATKDTYDALHMQALPPR	binds
anti-BCMA CAR of recombinant lentivirus LV 2 (SEQ ID NO: 237) (other, Chimeric antigen receptor on the surface of transduced cells; CD8α hinge and TM, CD137, CD3ζ) EIVLTQSPATLSLSPGERATLSCRASQSVSSYLAWYQQKPGQAPRLLIYDASNRATGIPARFSGSGSGTDFTLTISSLEPEDFAVYYCQQRFDYPITFGGGTKVEIKGGGGSGGGGSGGGGSGGGGSQITLKESGPTLVKPTQTLTLTCTFSGFSLSTSGVGVGWIRQPPGKALEWLALIYWNDDKRYSPSLKSRLTITKDTSKNQVVLTMTNMDPVDTAVYYCARDEYGGFDIWGQGTMVTVSSTTTPAPRPPTPAPTIASQPLSLRPEACRPAAGGAVHTRGLDFACDIYIWAPLAGTCGVLLLSLVITLYCKRGRKKLLYIFKQPFMRPVQTTQEEDGCSCRFPEEEEGGCELRVKFSRSADAPAYQQGQNQLYNELNLGRREEYDVLDKRRGRDPEMGGKPRRKNPQEGLYNELQKDKMAEAYSEIGMKGERRRGKGHDGLYQGLSTATKDTYDALHMQALPPR	binds
anti-BCMA CAR of recombinant lentivirus LV 8 (SEQ ID NO: 525) (other, Chimeric antigen receptor on the surface of transduced cells; CD8α hinge and TM, CD137, CD3ζ) DIQMTQSPSSLSASVGDRVTITCQASQDIANYLNWYQQKPGKAPKLLIYDASNLETGVPSRFSGSGSGTDFTFTISSLQPEDIATYYCQQHFNLPLTFGGGTKVEIKGGGGSGGGGSGGGGSGGGGSQITLKESGPTLVKPTQTLTLTCTFSGFSLSTSGVGVGWIRQPPGKALEWLALIYWNDEKRYSPSLKSRLTITKDTSKNQVVLTMTNMDPVDTAVYYCAREGSHDYKSSNWFDPWGQGTLVTVSSTTTPAPRPPTPAPTIASQPLSLRPEACRPAAGGAVHTRGLDFACDIYIWAPLAGTCGVLLLSLVITLYCKRGRKKLLYIFKQPFMRPVQTTQEEDGCSCRFPEEEEGGCELRVKFSRSADAPAYQQGQNQLYNELNLGRREEYDVLDKRRGRDPEMGGKPRRKNPQEGLYNELQKDKMAEAYSEIGMKGERRRGKGHDGLYQGLSTATKDTYDALHMQALPPR	binds
anti-BCMA CAR of recombinant lentivirus LV 10 (SEQ ID NO: 621) (other, Chimeric antigen receptor on the surface of transduced cells; CD8α hinge and TM, CD137, CD3ζ) EVQLLESGGGLVQPGGSLRLSCAASGFTFESEAMSWYRQAPGKERELVSVITSEGSTYYADSVKGRFTISRDNSKNTLYLQMNSLRAEDTAVYYCAHIEWETRLNWGQGTQVTVSSTTTPAPRPPTPAPTIASQPLSLRPEACRPAAGGAVHTRGLDFACDIYIWAPLAGTCGVLLLSLVITLYCKRGRKKLLYIFKQPFMRPVQTTQEEDGCSCRFPEEEEGGCELRVKFSRSADAPAYQQGQNQLYNELNLGRREEYDVLDKRRGRDPEMGGKPRRKNPQEGLYNELQKDKMAEAYSEIGMKGERRRGKGHDGLYQGLSTATKDTYDALHMQALPPR	binds
anti-BCMA CAR of recombinant lentivirus LV 5 (SEQ ID NO: 357) (other, Chimeric antigen receptor on the surface of transduced cells; CD8α hinge and TM, CD137, CD3ζ) QVQLVESGGGLVKPGGSLRLSCAASGFTFSDYYMSWIRQAPGKGLEWVSYISSSGSTIYYADSVKGRFTISRDNAKNSLYLQMNSLRAEDTAVYYCARDQGNYGVDVWGQGTTVTVSSGGGGSGGGGSGGGGSGGGGSDIQMTQSPSTLSASVGDRVTITCRASQSISSWLAWYQQKPGKAPKLLIYEASSLESGVPSRFSGSGSGTEFTLTISSLQPDDFATYYCQQSDSHPITFGGGTKVEIKTTTPAPRPPTPAPTIASQPLSLRPEACRPAAGGAVHTRGLDFACDIYIWAPLAGTCGVLLLSLVITLYCKRGRKKLLYIFKQPFMRPVQTTQEEDGCSCRFPEEEEGGCELRVKFSRSADAPAYQQGQNQLYNELNLGRREEYDVLDKRRGRDPEMGGKPRRKNPQEGLYNELQKDKMAEAYSEIGMKGERRRGKGHDGLYQGLSTATKDTYDALHMQALPPR	binds
anti-BCMA CAR of recombinant lentivirus LV 15 (SEQ ID NO: 741) (other, Chimeric antigen receptor on the surface of transduced cells; CD8α hinge and TM, CD137, CD3ζ) EVQLLESGGGLVQPGGSLRLSCAASGFTFDSYTMSWYRQAPGKERELVSAISGHGDSTYYADSVKGRFTISRDNSKNTLYLQMNSLRAEDTAVYYCTRISITTEWLAGDYWGQGTQVTVSSTTTPAPRPPTPAPTIASQPLSLRPEACRPAAGGAVHTRGLDFACDIYIWAPLAGTCGVLLLSLVITLYCKRGRKKLLYIFKQPFMRPVQTTQEEDGCSCRFPEEEEGGCELRVKFSRSADAPAYQQGQNQLYNELNLGRREEYDVLDKRRGRDPEMGGKPRRKNPQEGLYNELQKDKMAEAYSEIGMKGERRRGKGHDGLYQGLSTATKDTYDALHMQALPPR	binds
